# According to PMC3043092:
# Tests used:
# [1] = molecular target: Pisum sativum thioredoxin h1 (Pisum sativum); assay: SEC; Superdex 75 HR 16/60, 1 ml/min, 25°C; 100 µl at 24 µM loaded; 50 mM buffer with 150 mM NaCl, pH >= 7.0; no reducing agent
# [2] = molecular target: Pisum sativum thioredoxin f (Pisum sativum); assay: as above
stoichiometry N [1],stoichiometry N [2],Substance
2,–,Pisum sativum thioredoxin h1 (natural protein)
–,2,Pisum sativum thioredoxin f (natural protein)
